From article PMC4401514

Biological target: activated Cry1Ac toxin of Bacillus thuringiensis subsp. kurstaki HD73 (Bacillus thuringiensis subsp. kurstaki HD73) (UniProt P05068)
Experiment: SPR; BIAcore 3000; Cry1Ac immobilised on CM5 chip by amine coupling; HaALP1f injected at 31.25-500 nM; HBS (10 mM HEPES, 150 mM NaCl, 0.005% Tween20, pH 7.4), 40 ul/min; 1:1 Langmuir model; apparent rate constants

HaALP1f, his-tagged fragment of alkaline phosphatase HaALP1 from Helicoverpa armigera (from UniProt B4Z1D6 192-451) (domain or fragment)
Kd: 7.58 nM | koff: 0.00248 s⁻¹ | kon: 327000 M⁻¹ s⁻¹
